Numbering of substitutions follows the chain as printed. Names may count otherwise.
B1: Y0313-1 (Fab, V domains shown)
VH: EVQLVESGGGLVQPGGSLRLSCAASGYDFTHYGMNWVRQAPGKGLEWVGWINTYTGEPTYAADFKRRFTFSLDTSKSTAYLQMNSLRAEDTAVYYCAKYPYYYGTSHWYFDVWGQGTL
VL: DIQLTQSPSSLSASVGDRVTITCRANEQLSNYLNWYQQKPGKAPKVLIYFTSSLHSGVPSRFSGSGSGTDFTLTISSLQPEDFATYYCQQYSTVPWTFGQGTKVEIKR
notes: Combination variant: Y0243-1 plus VH3 H101Y and S105T; soluble Fab
B2: hu2.10V (Fab, V domains shown)
VH: EVQLVESGGGLVQPGGSLRLSCAASGYTFTNYGMNWIRQAPGKGLEWVGWINTYTGEPTYAADFKRRFTISLDTSASTVYLQMNSLRAEDTAVYYCAKYPHYYGSSHWYFDVWGQGTLVTVSS
VL: DIQMTQSPSSLSASVGDRVTITCSASQDISNYLNWYQQKPGKAPKVLIYFTSSLHSGVPSRFSGSGSGTDYTLTISSLQPEDFATYYCQQYSTVPWTFGQGTKVEIK
notes: Soluble Fab with human constant domains; also called hu2.10 with mutation VL Leu->Val
B3: pY0192 VH Y27A (Fab, V domains shown)
VH: B1 VH with Y27A, D28T, H31N, M34I, Y101H, T105S
VL: B1 VL
B4: pY0192 VH T59A (Fab, V domains shown)
VH: B1 VH with D28T, H31N, M34I, T59A, Y101H, T105S
VL: B1 VL
B5: pY0192 VH S106A (Fab, V domains shown)
VH: B1 VH with D28T, H31N, M34I, Y101H, T105S, S106A
VL: B1 VL
B6: pY0192 VH N52A (Fab, V domains shown)
VH: B1 VH with D28T, H31N, M34I, N52A, Y101H, T105S
VL: B1 VL
B7: pY0192 VH W50A (Fab, V domains shown)
VH: B1 VH with D28T, H31N, M34I, W50A, Y101H, T105S
VL: B1 VL
B8: pY0192 VH Y54A (Fab, V domains shown)
VH: B1 VH with D28T, H31N, M34I, Y54A, Y101H, T105S
VL: B1 VL
B9: pY0192 VH T55A (Fab, V domains shown)
VH: B1 VH with D28T, H31N, M34I, T55A, Y101H, T105S
VL: B1 VL
B10: pY0192 VH H101A (Fab, V domains shown)
VH: B1 VH with D28T, H31N, M34I, Y101A, T105S
VL: B1 VL
B11: pY0192 VH T53A (Fab, V domains shown)
VH: B1 VH with D28T, H31N, M34I, T53A, Y101H, T105S
VL: B1 VL
B12: pY0192 VH N31A (Fab, V domains shown)
VH: B1 VH with D28T, H31A, M34I, Y101H, T105S
VL: B1 VL
B13: pY0192 VH N35A (Fab, V domains shown)
VH: B1 VH with D28T, H31N, M34I, N35A, Y101H, T105S
VL: B1 VL
B14: pY0192 VH W108A (Fab, V domains shown)
VH: B1 VH with D28T, H31N, M34I, Y101H, T105S, W108A
VL: B1 VL
B15: pY0192 VH Y32A (Fab, V domains shown)
VH: B1 VH with D28T, H31N, Y32A, M34I, Y101H, T105S
VL: B1 VL
B16: pY0192 VH Y103A (Fab, V domains shown)
VH: B1 VH with D28T, H31N, M34I, Y101H, Y103A, T105S
VL: B1 VL
B17: pY0192 VH I51A (Fab, V domains shown)
VH: B1 VH with D28T, H31N, M34I, I51A, Y101H, T105S
VL: B1 VL
B18: pY0192 VH Y102A (Fab, V domains shown)
VH: B1 VH with D28T, H31N, M34I, Y101H, Y102A, T105S
VL: B1 VL
B19: pY0192 VH Y99A (Fab, V domains shown)
VH: B1 VH with D28T, H31N, M34I, Y99A, Y101H, T105S
VL: B1 VL
B20: pY0192 VH I34A (Fab, V domains shown)
VH: B1 VH with D28T, H31N, M34A, Y101H, T105S
VL: B1 VL
B21: pY0192 VH G33A (Fab, V domains shown)
VH: B1 VH with D28T, H31N, G33A, M34I, Y101H, T105S
VL: B1 VL
B22: pY0192 VH F29A (Fab, V domains shown)
VH: B1 VH with D28T, F29A, H31N, M34I, Y101H, T105S
VL: B1 VL
B23: pY0192 VH P100A (Fab, V domains shown)
VH: B1 VH with D28T, H31N, M34I, P100A, Y101H, T105S
VL: B1 VL
B24: pY0192 VH F110A (Fab, V domains shown)
VH: B1 VH with D28T, H31N, M34I, Y101H, T105S, F110A
VL: B1 VL
B25: pY0192 VH Y109A (Fab, V domains shown)
VH: B1 VH with D28T, H31N, M34I, Y101H, T105S, Y109A
VL: B1 VL
B26: Y0243-1 (Fab, V domains shown)
VH: B1 VH with Y101H, T105S
VL: B1 VL
notes: CDRH1 variant (T28D, N31H) from library HL-265; soluble Fab
B27: Y0238-3 (Fab, V domains shown)
VH: B1 VH with D28T, H31N, M34I
VL: B1 VL
notes: CDRH3 variant (H101Y, S105T) from library YC-81; soluble Fab
B28: Y0238-5 (Fab, V domains shown)
VH: B1 VH with D28T, H31N, M34I, Y103I, G104A, T105K
VL: B1 VL
notes: Library YC-81 (VH3) on the pY0192 template; substitutions deduced against Y0192; soluble Fab
B29: Y0238-7 (Fab, V domains shown)
VH: B1 VH with D28T, H31N, M34I, Y103W
VL: B1 VL
notes: as for B28
B30: Y0238-1 (Fab, V domains shown)
VH: B1 VH with D28T, H31N, M34I, Y103R
VL: B1 VL
notes: as for B28
B31: Y0244-1 (Fab, V domains shown)
VH: B1 VH with D28T, H31N, M34I, L72V, T74V, Y101H, T105S
VL: B1 VL
notes: only the randomized region is printed, substitutions deduced against Y0192; soluble Fab from E. coli 34B8
B32: Y0313-3 (Fab, V domains shown)
VH: B1 VH with D28T, H31N, M34I, T105S
VL: B1 VL
notes: Reversion mutant of Y0238-3; soluble Fab
B33: Y0244-4 (Fab, V domains shown)
VH: B1 VH with D28T, H31N, M34I, L72I, T74K, Y101H, T105S
VL: B1 VL
notes: substitutions deduced against Y0192; soluble Fab
B34: Y0238-10 (Fab, V domains shown)
VH: B1 VH with D28T, H31N, M34I, Y103R, G104N
VL: B1 VL
notes: as for B28
B35: hu2.10 (Fab, V domains shown)
VH: B2 VH
VL: B2 VL with V46L
notes: Phage-selected consensus clone, purified soluble Fab with human constant domains; also called consensus clone hu2.10
B36: muMAb VEGF A.4.6.1 (antibody, V domains shown)
VH: EIQLVQSGPELKQPGETVRISCKASGYTFTNYGMNWVKQAPGKGLKWMGWINTYTGEPTYAADFKRRFTFSLETSASTAYLQISNLKNDDTATYFCAKYPHYYGSSHWYFDVWGAGTTVTVSS
VL: DIQMTQTTSSLSASLGDRVIISCSASQDISNYLNWYQQKPDGTVKVLIYFTSSLHSGVPSRFSGSGSGTDYSLTISNLEPEDIATYYCQQYSTVPWTFGGGTKLEIKR

target: rhVEGF165 (human, UniProt P15692 27-191); assay: cell-based or functional assay

Row | Binder | potency in inhibiting VEGF-induced HuVEC DNA synthesis, against the wild-type Fab (Y0192) [fold]
1 | B1 | 30

target: T1, VEGF121 (human, UniProt P15692 27-147); assay: BIAcore SPR, VEGF121 immobilised
T1 construct: mature; also called Purified VEGF121
T1 sequence (looked up): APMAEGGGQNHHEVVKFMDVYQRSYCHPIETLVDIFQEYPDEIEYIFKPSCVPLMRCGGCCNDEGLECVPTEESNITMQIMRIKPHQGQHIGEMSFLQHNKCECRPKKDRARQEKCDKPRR

Row | Binder | fold improvement in KD over hu2.10 [fold]
2 | B2 | 6

target: T2, VEGF (human, UniProt P15692-4 27-191, limits assumed); assay: competitive phage-ELISA, wt = pY0192
T2 construct: also called human VEGF; vascular endothelial growth factor
Target sequence in this assay (P15692 other isoform, or with tags, fused parts or gaps limits assumed): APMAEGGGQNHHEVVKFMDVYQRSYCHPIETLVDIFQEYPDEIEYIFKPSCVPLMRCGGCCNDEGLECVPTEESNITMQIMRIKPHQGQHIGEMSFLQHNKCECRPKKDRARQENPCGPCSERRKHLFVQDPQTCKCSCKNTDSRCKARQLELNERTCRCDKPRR

Row | Binder | IC50 (mut) / IC50 (wt)
3 | B3 | 34
4 | B4 | 3
5 | B5 | > 150
6 | B6 | > 150
7 | B7 | > 150
8 | B8 | 9
9 | B9 | 4
10 | B10 | 4
11 | B11 | 9
12 | B12 | > 150
13 | B13 | 66
14 | B14 | > 150
15 | B15 | > 150
16 | B16 | 5
17 | B17 | 4
18 | B18 | 4
19 | B19 | > 150
20 | B20 | 6
21 | B21 | 6
22 | B22 | 16
23 | B23 | 38
24 | B24 | 25
25 | B25 | 19

target: T2, VEGF; assay: BIAcore-2000 SPR, wt = Y0192
Target sequence in this assay (P15692 other isoform, or with tags, fused parts or gaps limits assumed): as above

Row | Binder | Kd (wt) / Kd (mut) [ratio]
26 | B26 | 4.1
27 | B27 | ≥ 14
28 | B1 | ≥ 20
29 | B28 | 3.2
30 | B29 | ≥ 7.3
31 | B30 | 7.3
32 | B31 | 3.6
33 | B32 | 4.5
34 | B33 | 0.9
35 | B34 | 4.8

target: T1, VEGF121; assay: BIAcore SPR, VEGF121 immobilised, Fab in solution

Row | Binder | KD(A4.6.1)/KD(mut) as headed (values are KD(mut) over KD of the chimera) [ratio]
36 | B35 | 35
37 | B2 | 5.8

target: T2, VEGF; assay: KDR-IgG competition ELISA, biotinylated VEGF, 10% human serum

Row | Binder | IgG1/chIgG1 (EC50 ratio)
38 | B36 | 0.759

Reference: EP2336190A2 (Genentech, Inc., dated 2011)
